Data published in paper PMC11496107.
Blank lines part the entries; values can stand above or below the substance they belong to.

How the values were obtained:
[1] = target: co-repressor peptide; test: fluorescence polarisation; fluorescence anisotropy assay in vitro, receptor LBD with co-repressor peptide; conditions not shown (Supplementary Methods)
[2] = target: Gal4-NCoR (ID 1 + 2); test: mammalian two-hybrid assay (luciferase reporter, HEK293 cells); conditions: 20 h, parent: 100, read off a plot

fold reduction of affinity (against the wild-type LBD) [1]: 2 fold
Substance: LXRα ligand-binding domain (LBD) p.M346V (domain or fragment)

percent of parent ([2]; LOF sub-panel, highest T0901317 (T09) dose plotted (rightmost point)): 100 % WT
percent of parent ([2]; LOF sub-panel, untreated condition (leftmost point, plotted an order of magnitude below the lowest T09 dose)): 75 % WT
Substance: LXRα-VP16 (wild-type liver X receptor-α fused to VP16) mutant L217P [human] / Gal4-NCoR (ID 1 + 2) [not stated] chain 1 L217P

percent of parent ([2]; GOF sub-panel, highest T0901317 (T09) dose plotted (rightmost point)): 12 % WT
percent of parent ([2]; GOF sub-panel, untreated condition (leftmost point, plotted an order of magnitude below the lowest T09 dose)): 65 % WT
Substance: LXRα-VP16 (wild-type liver X receptor-α fused to VP16) mutant M346V [human] / Gal4-NCoR (ID 1 + 2) [not stated] chain 1 M346V
